Results taken from the supplement of paper PMC10567573.

B1: COX4I1 (parent)
chain: VAHVKHLSASQKALKEKEKASWSS
B2: SMTNL2 (parent)
chain: AFTMAENLANCERLIEVEDMMVMG

Variants of: B1
Experiment: protein stability index of a GFP-peptide fusion (GPS, HEK-293T) (PSI 1-6); higher = more stable
Details: c terminus: a fixed tail appended
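Note: lentivirally expressed fusions sorted by FACS into six bins by GFP to DsRed ratio, PSI derived from sequencing read proportions per bin multiplied by bin number.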

Protein stability index: each site, then its substitutions
V1: C 3.06, I 3.35, R 3.83, Q 4.05, W 2.41, Y 2.7, S 3.73, K 3.57, T 4.03, D 3.98, M 3.05, P 3.53, L 2.95, N 3.96, E 3.79, G 4.06, A 3.05, H 3.25, F 2.34
H3: E 4.11, A 3.44, K 3.16, Y 2.7, Q 3.28, I 2.58, S 3.27, T 3.77, G 3.22, M 3.43, F 2.52, R 3.19, N 4.5, C 2.75, L 2.6, W 2.1, V 3.13, D 4.11, P 3.73
K12: D 3.88, Q 3.86, L 3.32, M 2.77, P 3.58, R 3.07, I 2.71, S 3.64, A 2.61, H 2.84, W 2.69, V 3.77, C 2.33, G 2.65, N 3.13, E 3.52, F 2.92, T 3.32, Y 2.98
S10: T 2.56, F 2.83, V 2.94, R 3.16, I 2.37, H 3.05, P 3.39, N 3.98, W 2.26, G 3.46, D 4.01, C 1.97, Y 2.28, E 3.95, K 2.66, Q 3.12, A 2.88, M 2.94, L 2.58
V4: K 3.48, E 3.71, M 3.55, L 2.88, R 2.91, D 3.45, F 2.83, W 3.25, S 3.35, G 3.47, Y 3.27, A 4.1, C 3.34, N 3.64, Q 2.73, I 3.03, H 3.74, T 4.15
H6: N 3.38, E 3.87, P 3.98, S 3.38, L 3.3, K 3.51, Y 2.5, G 3.45, A 3.24, V 2.96, Q 4.45, D 3.81, M 3.12, C 3.21, F 2.78, R 3.41, W 2.32, T 2.97, I 3.24
A13: F 2.39, I 2.75, K 3.16, E 3.64, L 2.91, G 3.3, D 3.82, H 3.17, C 3.37
L7: D 4.03, Q 3.36, W 2.84, G 3.99, E 4.3, C 3.47, R 2.99, K 3.43, T 3.54, I 3.79, P 3.91, N 3.85, A 2.27, F 3.42, V 3.68, S 3.6, Y 3.36, H 3.72, M 3.4
Q11: D 3.21, N 3.4, L 2.96, T 2.86, V 2.65, E 3.65, I 2.94, A 3.28, W 2.92, K 2.99, M 3.25, G 2.67, H 3.26, C 3.21, P 3.6, S 3.35, F 2.56, R 2.83, Y 2.08
K5: D 3.27, P 3.64, T 3.66, I 2.4, V 3.1, E 3.69, W 2.65, H 2.93, R 2.65, Q 3.12, A 3.67, G 3.88, M 2.78, S 3.72, C 2.61, Y 2.55, L 3.28, F 2.45, N 3.45
A9: C 2.42, F 3.55, S 3.59, G 2.38, V 3.09, N 3.43, D 3.87, E 4.11, T 2.93, H 3.19, P 3.19, M 3.03, W 2.47, Y 2.06, K 3.07, L 3.23, Q 3.01, R 3.7, I 3.35
A2: K 3.02, F 2.23, S 3.25, E 3.77, M 3.19, R 2.77, P 3.77, T 3.86, D 3.6, C 3.44, W 2.92, H 3.72, Y 2.3, N 2.81, G 3.29, L 3.38, I 2.29, V 2.72, Q 3.46
S8: V 2.7, A 3.57, M 2.92, D 3.86, P 3.62, K 3.46, L 3.02, T 3.1, E 3.6, I 3.1, C 2.41, R 3.11, G 3.64, Y 2.55, W 2.35, N 3.53, F 2.2, H 3.22, Q 3.24

Variants of: B2
Experiment: as above
Details: c terminus: a fixed tail appended

Protein stability index, by site and new letter:
D19: W 4.57, R 1.39, Q 2.06, Y 2.48, S 1.62, T 1.94
G24: Q 2.71, V 1.03, P 2.07, L 1.74, M 1.96, K 2.31, F 2.22, E 2.93, C 1.52, H 1.59, Y 1.27, R 2.47, I 1.64, A 2.03, D 2.33, T 1.68, N 2.45, S 2
M21: A 2.37, F 2.56, T 2.68, R 2.23, N 3.13, I 1.98, W 1.9, E 4.11, Q 3, Y 2.22, V 2.18, H 3.02, P 3.27, K 2.95, D 3.83, G 2.12, L 2.39, C 2.14, S 2.65
M20: D 4.75, K 2.91, A 2.42, Y 1.72, S 2.27, T 3.4, N 3.03, G 2.47, V 2.68, R 2.16, W 2.51, H 2.98, L 1.9, Q 2.72, C 2.74, I 2.03, E 4.02, P 3.77
V22: G 2.54, W 1.77, L 2.18, R 2.46, E 3.18, T 2.25, S 1.99, Q 2.82, A 2.05, Y 2.07, I 1.78, P 2.65, D 2.55, C 2.19, M 2.19, N 2.44, H 1.85, K 2.87
M23: Q 3.21, D 3.57, T 1.8, V 2.38, A 2.61, K 2.8, P 2, E 3.69, H 2.24, W 2.1, G 1.7, R 1.97, Y 1.88, F 1.54, N 2.97, I 1.47, S 2.69, L 1.89, C 2.09
